# Results: patent US20120093805A1
# B1: anti-sugar chain-deficient CD27 chimeric antibody chimeric KM4030 (antibody, human IgG1, V domains shown)
# VH: EVQLVESGGGLVQPGRSLKLSCVASGFTFNNYWMTWIRQAPGKGLEWIASITNSGGSTYYPDSVKGRFTISRDNAKGTLYLQMNSLRSEDTATYYCTRDVNTYYGYNALFDYWGQGVMVTVSS
# VL: DIQMTQSPSVLSASVGDRVTLNCKASQNINEYLNWYQQKLGEAPKLLIYNTNNLQTGIPSRFSGSGSGTDFTLTISSLQPEDFAAYFCFQHNSWPYTFGAGTKLELK
# Target: sugar chain-deficient cynomolgus CD27 (C-terminal His tag) expressed on Lec8 cells (cynomolgus)
# Assay: flow cytometry (FCM) on cynomolgus CD27/Lec8 cells (Example 11(5)) [A]
binder,measurement,value
B1,EC50 (read off the curve),0.2 mg/L
